According to PMC7170532 (2020):

T1: pro-myostatin (uncleavable precursor, D99A/R263A/R266A) (human, UniProt O14793 24-375, D99A | R263A | R266A)
T1 sequence: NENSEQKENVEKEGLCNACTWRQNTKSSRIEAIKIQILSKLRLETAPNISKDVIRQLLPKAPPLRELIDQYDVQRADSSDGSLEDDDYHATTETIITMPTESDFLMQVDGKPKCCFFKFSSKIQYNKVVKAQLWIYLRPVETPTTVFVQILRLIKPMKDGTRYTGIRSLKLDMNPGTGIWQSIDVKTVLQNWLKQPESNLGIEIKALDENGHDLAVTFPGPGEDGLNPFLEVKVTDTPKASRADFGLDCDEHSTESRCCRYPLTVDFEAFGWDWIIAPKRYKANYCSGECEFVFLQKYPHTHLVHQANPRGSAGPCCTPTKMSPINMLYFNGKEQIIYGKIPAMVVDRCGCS

B1: 29H4-16 human IgG4 (antibody, V domains shown)
VH: QIQLVQSGGGVVQPGRSLRLSCAASGFTFSSYGMHWVRQAPGKGLEWVAVISYDGSRKYYADSVKGRFTISRDNSKNTLYLQMNSLRAEDTAVYYCARDLLVRFLYWSHYYGMDVWGQGTTVTVSS
VL: QPVLTQPPSASGTPGQRVTISCSGSSSNIGSNPVHWYQQLPGTAPKLLIYDDNQRPSGVPDRFSGSKSGTSASLVISGLQSDDEADYYCAAWDDSLNSVFGGGTKLTVL
B2: 29H4-16 Fab (Fab, V domains shown)
VH: B1 VH
VL: B1 VL

How the values were obtained:
latent myostatin = latent myostatin (human, UniProt O14793 267-375); experiment: BLI
[1] = biological target: T1, pro-myostatin (uncleavable precursor, …); experiment: BLI

| Binder | Kd (latent myostatin) [nM] | Kd [1] [nM] |
| --- | --- | --- |
| B1 | < 0.001 | < 0.001 |
| B2 | 1.76 | 1.51 |
